Assay results from patent US6027877, “Use of immobilized mismatch binding protein for detection of mutations and polymorphisms, purification of amplified DNA samples and allele identification” (Gene Check, Inc.).

Legend:
MutS [1] = molecular target: T1, MutS (Escherichia coli, UniProt P23909 P23909:1-853); experiment: dot blot with immobilized MutS, streptavidin-HRP ECL; as little as 0.2 ng detected; 20 mM Tris pH 7.6, 5 mM MgCl2, 1% BSA, room temperature; details: tags: adsorbed on nitrocellulose (0.45 um, Schleicher & Schuell); single G:T mismatch
T1 sequence: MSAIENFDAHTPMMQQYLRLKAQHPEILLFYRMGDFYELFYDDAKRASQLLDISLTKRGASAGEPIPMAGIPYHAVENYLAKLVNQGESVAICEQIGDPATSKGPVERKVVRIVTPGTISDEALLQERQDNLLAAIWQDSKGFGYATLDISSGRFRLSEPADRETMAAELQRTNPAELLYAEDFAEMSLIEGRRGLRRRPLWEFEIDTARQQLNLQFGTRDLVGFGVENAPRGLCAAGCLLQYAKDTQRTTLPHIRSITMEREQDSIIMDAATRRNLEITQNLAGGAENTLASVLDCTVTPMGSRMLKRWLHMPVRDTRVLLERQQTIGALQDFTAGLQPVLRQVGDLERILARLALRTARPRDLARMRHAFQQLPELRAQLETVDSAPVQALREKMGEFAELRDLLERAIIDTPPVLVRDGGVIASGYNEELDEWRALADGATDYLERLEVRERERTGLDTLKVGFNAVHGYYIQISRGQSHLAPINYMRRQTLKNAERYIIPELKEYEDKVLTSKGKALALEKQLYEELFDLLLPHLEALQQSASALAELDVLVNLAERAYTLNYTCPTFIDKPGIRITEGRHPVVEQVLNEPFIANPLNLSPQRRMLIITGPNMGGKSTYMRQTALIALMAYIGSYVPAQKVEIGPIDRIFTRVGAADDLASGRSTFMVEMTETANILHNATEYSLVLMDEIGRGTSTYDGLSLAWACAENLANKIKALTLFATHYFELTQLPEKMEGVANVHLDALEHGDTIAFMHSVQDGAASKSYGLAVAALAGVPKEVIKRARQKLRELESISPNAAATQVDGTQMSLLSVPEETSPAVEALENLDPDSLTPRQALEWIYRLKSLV
Protocol: (§1) Purified MBP, E. coli MutS, at a concentration of 0.5 μg/10 μl reaction buffer was spotted on the nitrocellulose paper in each well. The wells were incubated at room temperature, and the remaining liquid was pulled through with vacuum. Each well was washed twice with 100 μl reaction buffer by adding the solution to the well and then pouring it out. After the second wash, the remaining solution was pulled through the vacuum.
(§2) Biotinylated oligonucleotides, in 20 μl reaction buffer containing 1% BSA, were added to each well. After 30 minutes at room temperature, remaining liquid was poured out. Each well was washed with 5×100 μl reaction buffer by adding the solution to the well and then pouring it out. After the fifth wash, the remaining solution was pulled through by vacuum.
(§3) The presence of biotin was detected by its binding of Streptavidin. A 100 μl volume of Streptavidin-conjugated HRP (Pierce Chemicals) at a concentration of […] in reaction buffer +1% BSA was added to each well. After 2 hours at room temperature, the solution was poured out and each well washed with 5×100 μl reaction buffer by adding the solution and then pouring it out. After the fifth wash, the remaining solution was pulled through with vacuum.

MutS [2] = molecular target: T1, MutS; experiment: no detectable binding even with 200 ng; same buffer, 5 mM MgCl2, room temperature; details: tags: adsorbed on nitrocellulose (0.45 um, Schleicher & Schuell); perfect duplex
Protocol: as §1, §2, §3

MutS [3] = molecular target: T1, MutS; experiment: competition; competition clearly visible with 50 ng against 5 ng biotinylated mismatch 30-mer; details: tags: adsorbed on nitrocellulose (0.45 um, Schleicher & Schuell); single G:T mismatch
Protocol: as §1, §2
In competition studies, the DNA binding was as described above, except that a constant amount of biotinylated mismatch-containing oligonucleotide (5 ng) was mixed with varying amounts of unlabeled DNA, with or without a mismatch, and added to the wells.

B1: beta-globin 30-mer G:T mismatch duplex (dsDNA)
DNA 1: GCACCTGACTCCTGGGGAGAAGTCTGCCGT
DNA 2: ACGGCAGACTTCTCCTCAGGAGTCAGGTGC
binding result (MutS [1]): binds

B2: beta-globin 30-mer fully matched duplex (dsDNA)
DNA 1: GCACCTGACTCCTGGGGAGAAGTCTGCCGT
DNA 2: ACGGCAGACTTCTCCCCAGGAGTCAGGTGC
binding result (MutS [2]): no binding

B3: unlabeled beta-globin 30-mer G:T mismatch duplex (dsDNA)
DNA 1: GCACCTGACTCCTGGGGAGAAGTCTGCCGT
DNA 2: ACGGCAGACTTCTCCTCAGGAGTCAGGTGC
binding result (MutS [3]): binds
